Assay results as given in patent US7892767B2, “Phosphospecific chemokine receptor antibodies” (Washington University in St. Louis, priority 2005, dated 2011).

How the values were obtained:
CXCR4 = CXCR4 (Homo sapiens, UniProt P61073); assay: Stimulated CXCR4 phosphorylation in LN428 GBM cells (western blot); assay type: cell-based; design: lysates from the glioblastoma cell line LN428, which is known to express high levels of CXCR4; endogenous in cells; host or cells: LN428 GBM cell line
Experimental: Cell Culture, transfections and stimulation of CXCR4 phosphorylation. The U87 glioblastoma multiforme (GBM, grade IV) cell line was obtained from the American Type Culture Collection. The LN428 GBM cell line was a kind gift of Dr Erwin van Meir (Winship Cancer Center, Emory University, Atlanta, Ga.). U87 cells were grown in minimum essential a media supplemented with 10% fetal bovine serum ((FBS), Biomedia, Foster City, Calif.). LN428 cells were grown in DMEM (Fisher, Pittsburgh, Pa.) supplemented with 10% horse serum (Sigma). All cells were grown in the presence of penicillin-streptomycin. The coding sequence for human CXCR4 was obtained by high fidelity RT-PCR (Superscript III Platinum, Invitrogen), and cloned into the expression vector pMSCVneo (Clontech, Palo Alto, Calif.). Transfections were performed with 0.3 μg of plasmid DNA in 20 μl Lipofectamine (Invitrogen)/35 mm^2 tissue culture dish for 9 hours according to the manufacturer's instructions. Cells recovered in Optimem supplemented with 10% FBS. Transfected and non-transfected cells were placed in serum free media for 24 hours prior to treatment with agents to stimulate CXCR4 phosphorylation. Treatment was usually for 0 or 10 minutes with 1 μg/ml CXCL12 (Peprotech, Rocky Hill N.J.), 4 μM 4-Phorbol 12-myristate 13-acetate (PMA) or 10 nM EGF. In some experiments, CXCL12 was washed away and cells were incubated for an additional 20 minutes in serum free media alone.
Western Blot Analysis. Whole-cell extracts were obtained by lysing cells with lysis buffer (20 mM Tris pH 7.4, 137 mM NaCl, 10% Glycerol and 1% Triton X-100) supplemented with phosphatase inhibitor cocktail set II (Calbiochem, La Jolla, Calif.) and protease inhibitors PMSF (1 mM), leupeptin (0.005 mg/ml) and aprotonin (0.005 mg/ml). The proteins (50-75 μg) were resolved with 10% Bis-Tris gels (Invitrogen) and transferred onto the nitrocellulose membrane Hybond ECL (Amersham, Piscataway, N.J.) according to standard protocols. Polyclonal anti-CXCR4 antibody was used at a 1:500 dilution and P338-CXCR4 and P339-CXCR4 directed antibodies were used at 1:100 dilutions overnight at 4° C. This was followed by incubation with horseradish peroxidase-conjugated secondary antibody (1:15,000; Bio-Rad). Peroxide activity was detected using the enhanced chemiluminescence Supersignal West Dura system (Pierce, Rockford, Ill.). Mouse anti-actin antibody at a concentration of 1:1500 was used as a loading control. Peptide competitions and lambda phosphatase treatment were performed as described above.
The utility of these antibodies for evaluating the relationship between ligand binding and CXCR4 function is dependent upon their ability to distinguish a ligand activated form of the receptor. Serum starvation increased CXCL12 responsiveness (data not shown), and for all of these experiments LN428 GBM cells were serum starved for 24 hours prior to CXCL12 treatment. Serum starved LN428 cells were treated with 1 μg/ml CXCL12 for 0 or 10 minutes and the abundance of phospho-CXCR4 was determined by western blot and immuno-localization in fixed cells. […] A similar CXCL12-induced increase in P339-CXCR4 (FIG. 3B), but not P338-CXCR4 (data not shown) immunoreactivity was seen by immunofluorescent analysis of paraformaldehyde fixed cells. After 10 minutes of exposure to CXCL12, P339-CXCR4 can be seen localized to the surface of LN428 cells (FIG. 3B). CXCL12 was then washed away and cells were incubated in its absence for an additional 20 minutes. Surface labeling declined as a function of time and P339-CXCR4 was seen accumulating intracellularly.
Whether this is the only kinase that can phosphorylate these residues is unclear. The observation that protein kinase C (PKC) stimulated CXCR4 internalization also depends upon phosphorylation of this region of the molecule raises the question of whether these sites might also be PKC phosphorylation sites (17, 19, 27, 28). […]

Nf1+/+ astrocytes = assay: Cell cycle analysis by flow cytometry, Nf1+/+ astrocytes; assay type: cell-based, mouse; details: CXCL12 0.1 μg/ml
Experimental: Cell Cycle Analysis. Ethanol fixed cells were washed in PBS and resuspended in PI staining solution containing 0.1% Triton-X-100, 0.2 mg/ml RNase A, and 20 ug/ml Propidium Iodide in PBS. The cells were incubated for 15 minutes at 37° C., in the dark. Flow Cytometry was performed on a FACSCalibur system (Becton Dickinson, San Jose, Calif.) Data were analyzed using CellQuest software (Becton Dickinson, San Jose, Calif.). Aggregates and debris were excluded from the analysis.
The basis for the in vitro growth effects of CXCL12 was further evaluated by cell cycle analysis of asynchronously growing cultures of Nf1+/+ and Nf1−/− astrocytes in the presence and absence of CXCL12. In agreement with measurements of cell number, 15% more Nf1−/− astrocytes were in the S+G2M fraction of the cell cycle compared to Nf1+/+ astrocytes (P<0.005, data not shown). This decrease in Nf1+/+ cell number in response to CXCL12 was the result of both a 6% decrease in proliferation (S+G2-M) and a 38+/−8% increase in apoptosis (sub-G0). The increase in Nf1−/− cell number was the result of a 27+/−12% decline in apoptosis alone (FIG. 9C).

[1] = 1 μg/ml CXCL12, 4 μM PMA or 10 nM EGF

Chain of CXCR4 (P61073 whole entry): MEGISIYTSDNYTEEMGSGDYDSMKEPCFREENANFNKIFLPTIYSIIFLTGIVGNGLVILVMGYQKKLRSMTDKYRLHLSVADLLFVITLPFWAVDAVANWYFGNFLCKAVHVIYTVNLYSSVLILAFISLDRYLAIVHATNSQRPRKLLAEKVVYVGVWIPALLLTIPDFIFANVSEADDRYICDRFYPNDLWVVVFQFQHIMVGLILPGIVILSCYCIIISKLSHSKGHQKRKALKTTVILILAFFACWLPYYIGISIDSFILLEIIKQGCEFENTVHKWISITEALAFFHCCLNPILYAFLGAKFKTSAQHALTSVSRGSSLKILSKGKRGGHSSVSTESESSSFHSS

## CXCL12: chemokine ligand of CXCR4 (Peprotech)
CXCR4; [1]
  P338 phosphorylation stimulated: not
  P339 phosphorylation: stimulated
CXCR4; 1 μg/ml CXCL12, 10 minutes, serum starved LN428 cells
  P338-CXCR4 levels after treatment: unaffected
Nf1+/+ astrocytes
  decrease in proliferation (S+G2-M): 6%
  increase in apoptosis (sub-G0): 38+/−8%
